Assay [1] concerns the target HAdV-64 virion (E3 deleted, replication-competent HAdV-64 virus with CMV-eGFP ORF, WT HAdV-64 capsid) (human adenovirus 64 (HAdV-64)). Put plainly: co-sedimentation.
Assay [2] has as its target HAdV-5 virion (E1/E3-deleted, replication-defective HAdV-5 vector with eGFP cassette) (human adenovirus 5 (HAdV-5)) (UniProt P04133). Description: co-sedimentation.

Ends that are not written are not given here.

The molecule ATCYCRTGRCATRESLSGVCEISGRLYRLCCR (disulfide (positions not given here); also: oxidatively folded) [Human defensin 5] returned a fold less HD5 bound per virion than to HAdV-5 at 20 µM HD5 in assay [1] of 83 fold. The molecule further returned a stoichiometry N (molecules of HD5 per virion) in assay [2] of 7090.

Values taken from publication doi:10.1101/2020.05.08.079574.
